Laboratory results from the supplement of paper PMC12764529.
± gives the half width of the 95% confidence interval.

Experiments:
[1] = folding stability dG unfold (combined trypsin and chymotrypsin); higher = more stable
In short: (§1)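 Designed mini-proteins (under 80 residues, no cysteine) in a PA-tagged cDNA display construct were digested with trypsin and chymotrypsin. Each protease was used at 11 concentrations (threefold dilutions) plus a no-protease condition, followed by sequencing. K50 was inferred by Bayesian fitting of sequencing counts, and unfolding free energy was derived against a sequence-predicted unfolded-state K50 and a shared folded-state K50, per protease or combined. Only designs with AlphaFold2 dimer inter-PAE above 15 were kept.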

[2] = folding stability dG unfold from trypsin proteolysis; higher = more stable
In short: as §1

[3] = folding stability dG unfold from chymotrypsin proteolysis; higher = more stable
In short: as §1

Sequence	folding stability dG unfold [1] [kcal/mol]	folding stability dG unfold [2] [kcal/mol]	folding stability dG unfold [3] [kcal/mol]
SAGGSAGGSAGMFVERTLEITFVRPPNGPGPEEVEKRAKELQEKNPHLNVKVKVVDPSEASAGGSAGGSAGG [r17_220_JUSTAS]	0.699 ± 0.26	0.669 ± 0.086	0.795 ± 0.1
SAGGSAGGSAGMIDIKFEKIEGSSEYRATLTRPGGEVVPVLFSSSESAEEAKERAIELLESAGGSAGGSAGG [r17_161_JUSTAS]	1.15 ± 0.12	0.906 ± 0.06	1.28 ± 0.11
SAGGSAGGSAGMIKIEETVVLPDGTVVRKEKEIEPPNGKTTTLKTETVPVLSPGSESLLLSAGGSAGGSAGG [r11_919_JUSTAS]	0.461 ± 0.067	0.429 ± 0.041	0.313 ± 0.074
SAGGSAGGSAGMIVAKVVEYDPETGEITIEVDGKKITLPLKNMKIKEVNGYLVIEFKEDDSAGGSAGGSAGG [r17_403_TrROS_Hall]	3.25 ± 0.072	2.89 ± 0.11	3.43 ± 0.082
SAGGSAGGSAGMIVIKNPETKEYYVIKFDGKEYVIELSEDELKELLEKLKGKDVEIKKLPSAGGSAGGSAGG [r11_57_TrROS_Hall]	1.96 ± 0.2	2.01 ± 0.16	1.93 ± 0.048
SAGGSAGGSAGMIVLFPLEEKKFIIYDPETGKVEEIEGTPEEVLEYAKKKYPDKEVYLLPSAGGSAGGSAGG [r11_614_TrMRF]	5.15 ± 0.49	3.25 ± 0.36	5.19 ± 0.3
SAGGSAGGSAGMKIEIELDENGELRIRITVYNKETKEEVEEFEFTLPLEELEEELRKLLESAGGSAGGSAGG [r11_376_TrROS_Hall]	3.5 ± 0.22	3.16 ± 0.12	3.62 ± 0.15
SAGGSAGGSAGMKIEYEHDPNRNWYTVKIDFPNGPPKIPIQVPHDDMPPNDLRDWAKELFSAGGSAGGSAGG [r11_557_TrROS]	0.475 ± 0.28	0.459 ± 0.12	0.58 ± 0.33
SAGGSAGGSAGMKIKFPNGKVVEIHMDEDSGNIEIEFPDGKKKEINIPGMSIDDILDYLKSAGGSAGGSAGG [r11_729_TrROS]	1.59 ± 0.045	1.56 ± 0.036	1.46 ± 0.033
SAGGSAGGSAGMKKVLIIGGPKEELAKELKEKSPDIEVEFLDPSEDLEEYKKKFDIVIIESAGGSAGGSAGG [r17_225_JUSTAS]	0.0867 ± 0.084	-0.387 ± 0.09	0.255 ± 0.072
SAGGSAGGSAGMKLPEGWEIVAVYRDKETNKLYLIVRDTKTKKLLIVDLDTKKIISAEELSAGGSAGGSAGG [r11_268_TrROS_Hall]	4.06 ± 0.1	3.63 ± 0.18	4.1 ± 0.13
SAGGSAGGSAGMKNKNYKVYTYKINIIDPGYENTTIIVEPNPAKPKAKPITIPIIIVEPASAGGSAGGSAGG [r11_257_TrMRF]	0.797 ± 0.21	0.57 ± 0.083	1.03 ± 0.18
SAGGSAGGSAGMKPDDTVTYTITVPHPESGEPLAEIELTYPVGTPIEKVKEEAKILAEKISAGGSAGGSAGG [r11_516_TrMRF]	0.429 ± 0.088	0.515 ± 0.03	0.141 ± 0.27
SAGGSAGGSAGMKTLKTTTKVFPGTGVIVTESLVEFPNGSLKKLTKVTYVKNPNPSTTLASAGGSAGGSAGG [r17_41_JUSTAS]	0.602 ± 0.19	0.474 ± 0.093	0.545 ± 0.14
SAGGSAGGSAGMKTRTITVSVSPEESEEEVRERVEAELPPGSVVEVTRLPDGTVVVTVEESAGGSAGGSAGG [r17_20_JUSTAS]	1.55 ± 0.048	0.401 ± 0.043	1.99 ± 0.035
SAGGSAGGSAGMKTVTETEFDPAAPVVTTTTSLVTLPPDGKPSITSTTTTTTAVAAPAAAASAGGSAGGSAG [r3_138_JUSTAS]	1.03 ± 0.062	-0.0492 ± 0.05	1.41 ± 0.038
SAGGSAGGSAGMKVAVLTIPENGKPVLVVELPDGGALAFDPDTDAVFLLDDDKIYYLGPASAGGSAGGSAGG [r17_476_TrMRF]	1.13 ± 0.075	0.0117 ± 0.033	1.52 ± 0.059
SAGGSAGGSAGMKVEEVPETPVWRFTITRGKKTTIVEVEVPPDEPPDPAEVAAELGYELESAGGSAGGSAGG [r11_1053_JUSTAS]	1.89 ± 0.25	1.84 ± 0.075	1.65 ± 0.18
SAGGSAGGSAGMKVKTDPSSGPTVNKAYLENGTLILTTVTYDPSNGTTSTTTTVVPLSLLSAGGSAGGSAGG [r17_287_JUSTAS]	0.823 ± 0.21	0.433 ± 0.12	1.23 ± 0.22
SAGGSAGGSAGMLARITLSTPEKPVEYIVPESEVEEYIKKLNLPEDTEVTVTPVDPAALLSAGGSAGGSAGG [r17_395_JUSTAS]	1.4 ± 0.037	0.574 ± 0.022	1.8 ± 0.032
SAGGSAGGSAGMLPLEELLKKNPKPIKVLVKVGDTEYLVEVTPGEKKYTIKVKPLKKSKPSAGGSAGGSAGG [r11_549_TrMRF]	1.41 ± 0.076	1.08 ± 0.026	1.55 ± 0.047

Sequence	folding stability dG unfold [1] [kcal/mol]	folding stability dG unfold [2] [kcal/mol]	folding stability dG unfold [3] [kcal/mol]
SAGGSAGGSAGMPEKVTLTFERSSEVFDPKLGKWRTLPSTEVVEFDSEEEAEELKEKLGLSAGGSAGGSAGG [r11_984_JUSTAS]	0.123 ± 0.31	-0.506 ± 0.55	0.575 ± 0.36
SAGGSAGGSAGMPKVEAVDISYSADPNSKSYTITIKSPDGEPIVLTLNSPSEIENLELVLSAGGSAGGSAGG [r11_711_JUSTAS]	1.34 ± 0.13	1.19 ± 0.026	1.34 ± 0.1
SAGGSAGGSAGMPLYIIEVEKEDGSKITITIPENMTEEEIKKIAEELGIKKVEIIKKEDLSAGGSAGGSAGG [r11_490_TrROS_Hall]	1.84 ± 0.087	1.91 ± 0.061	1.8 ± 0.053
SAGGSAGGSAGMRIVIEVPEDTTVEELAKKLADLGYEVEIRVERDENGRLLVVIEIRPKDSAGGSAGGSAGG [r11_1050_TrROS_Hall]	2.8 ± 0.14	2.66 ± 0.088	2.88 ± 0.12
SAGGSAGGSAGMRIVLRLPRDVPLEALRRELEALGGEVRIETEDDPDGRLLFVVELRPKESAGGSAGGSAGG [r11_1050_TrMRF]	1.8 ± 0.14	1.63 ± 0.061	1.81 ± 0.14
SAGGSAGGSAGMRKVVTGKEAVVKLTGIPPEVLEAMSEEELRALVAPLVEAGKVDEIELKSAGGSAGGSAGG [r11_80_JUSTAS]	0.601 ± 0.13	-0.0624 ± 0.17	0.898 ± 0.052
SAGGSAGGSAGMRPVTSVYYDPNTGRLYARFPDGVVANYELTPDGSVRLVSVAPAHPDLDSAGGSAGGSAGG [r17_61_TrMRF]	1.42 ± 0.066	0.992 ± 0.04	1.64 ± 0.059
SAGGSAGGSAGMRTVEVKVVFKEGDKEFEKTITITLSPDDPSLEERAKEIAEKGIVVEIIRSAGGSAGGSAG [r3_30_JUSTAS]	1.75 ± 0.15	1.62 ± 0.055	1.99 ± 0.12
SAGGSAGGSAGMRVVEVYRLPDGSYRIRFPDGTEVEVSPEELEEVARRLGADEVRVRPELSAGGSAGGSAGG [r11_312_JUSTAS]	3.78 ± 0.051	2.4 ± 0.056	4.201 ± 0.041
SAGGSAGGSAGMSALVLKVKIYYPKELFSPEEIEKIKSARIEVEPFLVEVKIDPETGELGSAGGSAGGSAGG [r17_310_TrMRF]	2.38 ± 0.061	1.84 ± 0.03	2.744 ± 0.021
SAGGSAGGSAGMTKIVIQYEVPPDKPPPDLEEIKKSLPGAENIEITREELPNGTWVYTVESAGGSAGGSAGG [r17_205_JUSTAS]	0.593 ± 0.26	0.694 ± 0.19	0.405 ± 0.3
SAGGSAGGSAGMTKTITVGDKKVNVTITPLPTPTTKVTITFPDGSTKTVTLPAGTPITLGSAGGSAGGSAGG [r11_525_JUSTAS]	0.326 ± 0.054	0.566 ± 0.045	0.176 ± 0.064
SAGGSAGGSAGMTLEELAAADPDAVVPVKVPGTDTDVDVTVEPGAVRFTFPDGTTATVPASAGGSAGGSAGG [r17_128_JUSTAS]	-0.046 ± 0.17	-0.307 ± 0.11	0.112 ± 0.19
SAGGSAGGSAGMTPEEEVEYEIEVPDPNSDNLKTKIKLKFPVGTPEEEIKKKAEELAKKLSAGGSAGGSAGG [r11_516_JUSTAS]	1.73 ± 0.19	1.67 ± 0.11	1.67 ± 0.093
SAGGSAGGSAGMTPGPAPRPKVTVEPSLSEVPEDDSIVTTTTVTFPDTGETTSSTTTSSASAGGSAGGSAGG [r17_31_JUSTAS]	1 ± 0.084	0.337 ± 0.064	1.24 ± 0.051
SAGGSAGGSAGMTPVEITDPNSDKTYTYDPEKKTLTKYYPGEGKTETFPLTSEEEAKKLLSAGGSAGGSAGG [r11_936_JUSTAS]	0.127 ± 0.08	-0.536 ± 0.13	0.396 ± 0.069
SAGGSAGGSAGMTTLTVTVPAPPDALTPEDVVALLRPEYPDATITVTREGDTLVVTVTVASAGGSAGGSAGG [r11_7_JUSTAS]	2.83 ± 0.047	3.31 ± 0.058	2.39 ± 0.033
SAGGSAGGSAGMTVEVVKSVVPTKTNETVIVTTVTEVEPPTGKVTTLETKTVSTANPELLSAGGSAGGSAGG [r11_777_JUSTAS]	-0.369 ± 0.23	-0.755 ± 0.12	-0.395 ± 0.11
SAGGSAGGSAGMTYVYPGPDGKEYLAEVDPNIPGAEVTVTPPDTGETVTVPLSQVTEVPPSAGGSAGGSAGG [r11_822_JUSTAS]	0.222 ± 0.063	0.56 ± 0.05	-0.449 ± 0.18
SAGGSAGGSAGMVFLDPETRLLLVVHPNGEPELVLLEDGRAVLFHPSTGERREIPLAEIGSAGGSAGGSAGG [r11_297_TrMRF]	0.263 ± 0.12	-0.195 ± 0.13	0.318 ± 0.12
SAGGSAGGSAGMVIVDPERGYIYIPFPEDIEPEEFIEANKIPEFDIEVLEIGENIPVIKLSAGGSAGGSAGG [r17_323_TrMRF]	0.209 ± 0.096	0.357 ± 0.047	-0.0485 ± 0.12
